T1: Myc-tagged HCMV UL53 (residues 50-292) with glycine-serine linker (human cytomegalovirus (HCMV), UniProt P16794 50-292)
T1 construct: source: E. coli BL21 (DE3) RIPL, purified (glutathione-agarose, on-column PreScission digestion, size exclusion chromatography); not shown: GST, N-terminal, cleaved; Myc, N-terminal, kept
T1 sequence: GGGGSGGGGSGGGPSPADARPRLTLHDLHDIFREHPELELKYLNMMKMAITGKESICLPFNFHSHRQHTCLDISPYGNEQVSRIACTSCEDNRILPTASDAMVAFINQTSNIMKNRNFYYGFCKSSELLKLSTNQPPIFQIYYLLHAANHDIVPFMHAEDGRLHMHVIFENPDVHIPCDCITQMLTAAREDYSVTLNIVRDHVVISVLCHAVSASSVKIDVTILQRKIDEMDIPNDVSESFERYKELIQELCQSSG


Key:
Assay in all cases: AlphaScreen or HTRF
[1] = target: His-tagged HCMV UL50 (residues 1-169) C35N (human cytomegalovirus (HCMV)) (UniProt P16791)
[2] = target: His-tagged HCMV UL50 (residues 1-169) C54S (human cytomegalovirus (HCMV)) (UniProt P16791)
[3] = target: His-tagged HCMV UL50 (residues 1-169) C79S (human cytomegalovirus (HCMV)) (UniProt P16791)
[4] = target: T1, Myc-tagged HCMV UL53 (residues 50-292) …; details: both partners purified

Molecule | Kd [1] [nM] | Kd [2] [nM] | Kd [3] [nM] | Kd [4] [nM]
Myc-tagged HCMV UL53 (residues 50-292) with glycine-serine linker (from UniProt P16794 50-292) (domain or fragment) | 150 | 240 | 340 | –
His-tagged HCMV UL50 (residues 1-169) (domain or fragment, also called His-UL50; source: E. coli BL21 (DE3) RIPL, purified (nickel Sepharose, size exclusion chromatography); not shown: His, N-terminal, kept) MEMNKVLHQDLVQATRRILKLGPSELRVTDAGLICKNPNYSVCDAMLKTDTVYCVEYLLSYWESRTDHVPCFIFKNTGCAVSLCCFVRAPVKLVSPARHVGEFNVLKVNESLIVTLKDIEEIKPSAYGVLTKCVVRKSNSASVFNIELIAFGPENEGEYENLLRELYAK | – | – | – | 300

Source: publication PMC10691697, “A small molecule exerts selective antiviral activity by targeting the human cytomegalovirus nuclear egress complex” (PLOS Pathogens, 2023)
